The RNAGym collection of RNA variant scans (doi:10.1021/acssynbio.7b00057)

B1: Pistol ribozyme (parent)
chain: GGGUCGUUGUUCCAUAAUCGCGUGGAUAUGGCACGCAAGUUUCUACCGGGCACCGUAAAUGUCCGACUGGAGCCGUUCGGGCGGCUAUAAACAGACCUCAGGCCCGAAGCGUGGCGGCACCUGCCGCCGGUGGUAAAAAAGAUCGGAAGAGCACACGUCU

Variants of: B1
Experiment: aptazyme ON/OFF ratio, guanine; higher = stronger switching; co-transcriptional cleavage with and without guanine

Variant | aptazyme ON/OFF ratio
U7G U8A G9U U10A U11A C12G C13G | 1.09
U7G U8A G9U U10A U11A C12G C13U | 1.06
U7G U8A G9U U10A U11A C12G C13A | 1.05
U7G U8A G9U U11C C12A C13G | 1.07
U7G U8A G9U U11C C12A C13A | 1.1
U7G U8A G9U U11C C12A C13U | 1.16
U7G U8A U10A C12G C13U | 1.47
U7G U8A U10A C12G C13A | 1.23
U7G U8A U10A C12G C13G | 1.22
U7G U8A G9U U10A | 1.46
U7G U8A G9U U10C | 3.13
U7G U8A G9U U10G | 1.51
U7G U8A G9U U10C U11G C12G C13G | 1.05
U7G U8A G9U U10C U11G C12G C13A | 1.07
U7G U8A G9U U10C U11G C12G C13U | 1.02
U7G U8A G9U U10G U11A C12U C13U | 1.02
U7G U8A G9U U10G U11A C12U C13A | 1.11
U7G U8A G9U U10G U11A C12U C13G | 1.03
U7G U8A U10A U11G C13A | 1.23
U7G U8A U10A U11G C13U | 1.38
U7G U8A U10A U11G C13G | 1.36
U7G U8A G9U U10C U11C | 1.06
U7G U8A G9U U10C U11G | 1.24
U7G U8A G9U U10C U11A | 1.41

Variant | aptazyme ON/OFF ratio
U7G U8A U10A U11G C12A C13U | 1.17
U7G U8A U10A U11G C12A C13G | 1.19
U7G U8A U10A U11G C12A C13A | 1.17
U7G U8A G9U U10A U11G C12G | 1.08
U7G U8A G9U U10A U11G C12U | 1.16
U7G U8A G9U U10A U11G C12A | 1.06
U7G U8A U10A U11G C12U C13G | 1.14
U7G U8A U10A U11G C12U C13A | 1.38
U7G U8A U10A U11G C12U C13U | 1.71
U7G U8A G9U U10C C13A | 1.11
U7G U8A G9U U10C C13U | 1.38
U7G U8A G9U U10C C13G | 1.06
U7G U8A G9U U10A U11G C12A C13G | 1.06
U7G U8A G9U U10A U11G C12A C13A | 1.09
U7G U8A G9U U10A U11G C12A C13U | 1.09
U7G U8A G9U U10A U11C C12G C13U | 1.05
U7G U8A G9U U10A U11C C12G C13G | 1.05
U7G U8A G9U U10A U11C C12G C13A | 1.06
U7G U8A G9U U10A C12U | 1.03
U7G U8A G9U U10A C12A | 1.05
U7G U8A G9U U10A C12G | 1.06
U7G U8A G9U U10C U11C C12G C13U | 1.06
U7G U8A G9U U10C U11C C12G C13G | 1.06
U7G U8A G9U U10C U11C C12G C13A | 1.09

Variant | aptazyme ON/OFF ratio
U7G U8A G9U U10C U11A C12U C13A | 1.05
U7G U8A G9U U10C U11A C12U C13U | 1.06
U7G U8A G9U U10C U11A C12U C13G | 1.09
U7G U8A G9U U11A C12A C13A | 1.16
U7G U8A G9U U11A C12A C13U | 1.15
U7G U8A G9U U11A C12A C13G | 1.11
U7G U8A U10C C12U C13G | 1.26
U7G U8A U10C C12U C13A | 1.24
U7G U8A U10A U11G C12G | 1.33
U7G U8A U10A U11G C12A | 1.11
U7G U8A U10A U11G C12U | 1.14
U7G U8A U10A U11A C13A | 1.2
U7G U8A U10A U11A C13G | 1.15
U7G U8A U10A U11A C13U | 1.21
U7G U8A G9U U11C C13A | 1.1
U7G U8A G9U U11C C13U | 1.09
U7G U8A G9U U11C C13G | 1.05
U7G U8A G9U U11C C12G C13A | 1.09
U7G U8A G9U U11C C12G C13G | 1.04
U7G U8A G9U U11C C12G C13U | 1.08
U7G U8A G9U U10A U11C C12U C13U | 1.01
U7G U8A G9U U10A U11C C12U C13G | 1.07
U7G U8A G9U U10A U11C C12U C13A | 1.07
U7G U8A G9U U10A U11A C12U C13A | 1.07

Variant | aptazyme ON/OFF ratio
U7G U8A G9U U10A U11A C12U C13U | 1.06
U7G U8A G9U U10A U11A C12U C13G | 1.07
U7G U8A G9U C12G | 1.1
U7G U8A G9U C12A | 1.06
U7G U8A G9U C12U | 1.18
U7G U8A G9U U10A U11G C12U C13G | 1.08
U7G U8A G9U U10A U11G C12U C13A | 1.07
U7G U8A G9U U10A U11G C12U C13U | 1.02
U7G U8A G9U U10G U11A C12A C13G | 1.07
U7G U8A G9U U10G U11A C12A C13A | 1.12
U7G U8A G9U U10G U11A C12A C13U | 1.07
U7G U8A G9U U10C U11C C13G | 1.02
U7G U8A G9U U10C U11C C13U | 1.01
U7G U8A G9U U10C U11C C13A | 1.03
U7G U8A G9U U10G U11G C12A | 1.24
U7G U8A G9U U10G U11G C12U | 1.15
U7G U8A G9U U10G U11G C12G | 1.29
U7G U8A U10A U11C C12A C13U | 1.17
U7G U8A U10A U11C C12A C13A | 1.26
U7G U8A U10A U11C C12A C13G | 1.25
U7G U8A G9U U10A C13U | 1.02
U7G U8A G9U U10A C13G | 1.03
U7G U8A G9U U10A C13A | 1.06
U7G U8A G9U U10A C12A C13G | 1.06

Variant | aptazyme ON/OFF ratio
U7G U8A G9U U10A C12A C13A | 1.04
U7G U8A G9U U10A C12A C13U | 1.06
U7G U8A U10A U11A C12U | 1.12
U7G U8A U10A U11A C12G | 1.14
U7G U8A U10A U11A C12A | 1.08
U7G U8A U10A C12A C13A | 1.33
U7G U8A U10A C12A C13U | 1.08
U7G U8A U10A C12A C13G | 1.3
U7G U8A G9U U10C U11C C12G | 1.08
U7G U8A G9U U10C U11C C12U | 1.06
U7G U8A G9U U10C U11C C12A | 1.09
U7G U8A G9U U10A U11A C12A | 1.08
U7G U8A G9U U10A U11A C12G | 1.05
U7G U8A G9U U10A U11A C12U | 1.09
U7G U8A G9U U10C C12A C13G | 1.12
U7G U8A G9U U10C C12A C13U | 1.15
U7G U8A G9U U10C C12A C13A | 1.12
U7G U8A G9U U10G U11G C12G C13A | 1.15
U7G U8A G9U U10G U11G C12G C13G | 1.24
U7G U8A G9U U10G U11G C12G C13U | 1.05
U7G U8A G9U U10G C12G C13G | 1.07
U7G U8A G9U U10G C12G C13A | 1.05
U7G U8A G9U U10G C12G C13U | 1.12
U7G U8A G9U U10C U11A C12G C13U | 1.09

Variant | aptazyme ON/OFF ratio
U7G U8A G9U U10C U11A C12G C13A | 1.1
U7G U8A G9U U10C U11A C12G C13G | 1.07
U7G U8A G9U U11A C12G C13U | 1.04
U7G U8A G9U U11A C12G C13A | 1.06
U7G U8A G9U U11A C12G C13G | 1.06
U7G U8A G9U U10C U11G C12U C13A | 1.09
U7G U8A G9U U10C U11G C12U C13G | 1.07
U7G U8A G9U U10C U11G C12U C13U | 1.19
U7G U8A G9U U11G C12U C13A | 1.1
U7G U8A G9U U11G C12U C13U | 1.15
U7G U8A G9U U11G C12U C13G | 1.04
U7G U8A G9U U10G U11A C12A | 1.09
U7G U8A G9U U10G U11A C12G | 1.09
U7G U8A G9U U10G U11A C12U | 1.04
U7G U8A G9U U10G U11G | 1.11
U7G U8A G9U U10G U11A | 1.05
U7G U8A G9U U10G U11C | 1.04
U7G U8A G9U U10A U11C C12A C13A | 1.1
U7G U8A G9U U10A U11C C12A C13U | 1.05
U7G U8A G9U U10A U11C C12A C13G | 1.02
U7G U8A G9U U10C C12A | 1.2
U7G U8A G9U U10C C12G | 1.52
U7G U8A G9U U10C C12U | 1.32
U7G U8A G9U C12A C13U | 1.1

Variant | aptazyme ON/OFF ratio
U7G U8A G9U C12A C13G | 1.05
U7G U8A G9U C12A C13A | 1.1
U7G U8A G9U U10G U11C C13U | 1.06
U7G U8A G9U U10G U11C C13G | 1.04
U7G U8A G9U U10G U11C C13A | 1.06
U7G U8A U10A C12U | 1.18
U7G U8A U10A C12A | 1.26
U7G U8A U10A C12G | 1.3
U7G U8A U10C C12G C13U | 1.31
U7G U8A U10C C12G C13G | 1.17
U7G U8A U10C C12G C13A | 1.39
U7G U8A U10A U11C C13U | 1
U7G U8A U10A U11C C13G | 1.06
U7G U8A U10A U11C C13A | 1.03
U7G U8A G9U U10G C12U | 1.13
U7G U8A G9U U10G C12A | 1.09
U7G U8A G9U U10G C12G | 1.07
U7G U8A G9U U10C U11C C12U C13A | 1.03
U7G U8A G9U U10C U11C C12U C13U | 1.06
U7G U8A G9U U10C U11C C12U C13G | 1.06
U7G U8A G9U U10C U11G C12G | 1.1
U7G U8A G9U U10C U11G C12A | 1.06
U7G U8A G9U U10C U11G C12U | 1.35
